assay: soluble fraction after stress (log2 fold change); higher = more stays soluble; pooled small domains, quantitative proteomics; conditions: stress: pH 4
Outline: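 Values are on a log2 scale, where higher means more of the domain stayed soluble after pH 4 stress. They are fold changes in the soluble amount of each domain from pooled custom libraries, measured by high-throughput quantitative proteomics. The fold change is taken to reflect aggregation propensity.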

| Sequence | soluble fraction (log2) |
| --- | --- |
| HMPLNAHIVGRGKRDRRGKRGAPYSIVLELGRDENGKRIQKWYSGYPTKAAAEEDKIRMLRELQTGEYVPQ | 0.153 |
| HMPLPFSPVMFVGTKSGAQTDLDGNYKIETYYSSDSLKVVVLGYAPLAKKVKQGTTSVVNFELSAAS | 0.104 |
| HMPLPLYVQIKESLRGQIFDGTYGEHERLPSENDLMSSFGVSRITVRQALSDLEKEELIFKVPGKGAFVSR | -1.28 |
| HMPLQKNRPKIKPQKVVFLFSVEWMWSPAHNRIDSYFINIKPSRYYLWNSFFDRHSFSDYWDFIGYTEN | 0.22 |
| HMPLSDAEKAAAIATQAKERALKLSPEMISYLLRHASRDMRTLSMLVVALDQYTLEQKRPVTLPLLRELLS | -0.0153 |
| HMPMIQHFHRMISAALGISEKQIVQTLGLLNDGATIPFISRYRKEVTGGLDEVQIESIKTHYEKLNEIAK | -0.999 |
| HMPMPQDEVSYALGLSIGQNFKASGIKAITSEDFIAGLQDALAEREPQMTTERAREVINQLFMRLQQEESE | -0.784 |
| HMPMTDYQLIRSNRRTIALQITRDARVVVRAPLYASEADIRRFVESHRAWIESHLDRQRARTD | 0.201 |
| HMPMTRILFLPDDRTILQFDSAEPAEDLVSAVNAGRWLPPEPYRSGFGLGLPENRLRASRQGALVVVMLS | -1.19 |
| HMPNDYRKKLEILAKEKGAEYLHTMLTEVDPKSALQIHTNNIKRTIRALEFYHQTGMKISEHNEAEREK | 0.0478 |
| HMPNIHVVFAEEWTDRRLDKVLSEYFDGYSRSFIKKLFDDGLILVNSKAVKPSYKVRAGDMIDISVPDPV | -0.465 |
| HMPNPALESARPAFEAFLSRFSDGEAMRGPAWGLWSLLHRKGNAPTASHAAGRDGMGVLAFLRHWQWG | -0.551 |
| HMPPDLSEAIQKRIEGKTDEALEILRKLYNEYPESTEIITMLGRTLLDAEEYALAAFRLEQALDLGG | -1.22 |
| HMPPDVIENIFKNDANKIIDLYNMAPRGQKETIVEMIKNKRLQGINVDANVLVKLGELTGIDFVN | -1.37 |
| HMPPLVLRGVVMGADGARLAILAQGEAGAALGIGETWKEYTLRSVTDQSATLEHRSGTITLTR | -0.437 |
| HMPPNPELGKKLLKLRKEFKMTQDDVANILGMSRTSFSKYENGIANPPLQVMRKLASIYNVGLEYLI | -0.0729 |
| HMPQEMIEILATPNGWLRVRQGPGTNYPEITKVNSGEEFPLLEEKDSWFKIRIEEGQEGWISSQYAQKEE | -0.0319 |
| HMPQGFEDLTEREREVLTLIAEGRTNQEIADALVISIKTVNRHRENIMAKLNLHSRVELVRYAIAQGLI | -0.723 |
| HMPQNLQDQLFELILSRYPRRADAVEDLANILHLGKDPVYRRLRGDTFLSPLEISTLALHFRISLDALIV | -1.51 |
| HMPQPEIEIAAVVPYSAGALLSRIHDDGELLAPVEYRGEGVFVHARVPADIEAAMRRGGMLSPAET | -0.164 |
| HMPQQVFKREDLQKWGLTGQADSRKRREKLGQLLGIGYGNGKQLIHRLNMFQVDRATFEQAIKQINQEEDH | 0.00776 |
| HMPQTNIYPNPAFDKLFVSNLENETNFKIMDLFGRTIINSKTKGEISISELKSGIYIIEINNFRQKFVK | -0.863 |
| HMPQVALAIDEMKRELASPDIVKTLLATTFKGLSEVNMRQAMLDGMIQGHTIADFFKKDVYAIPFGSGYSL | -0.0951 |
| HMPRPFPELTTREHDILALIARGWSNGRIADHLSLSGKTVSNYVSNILGKLQVTARAEAAERAREAGMGQ | -0.401 |
| HMPRRSYLDARKKLLGMLNSPDFNSGDQIPAERELSEVLGISRVTVRKIITELIDEGVLERRGNQGTWLVD | -0.48 |

| Sequence | soluble fraction (log2) |
| --- | --- |
| HMPRSREVHVEPGMVLEDVTTGFVGAVIRTEKSAGIYVIELEDRRGRRRSFPLGGGFWLDGRPIIALPPLP | 0.281 |
| HMPSLAVYPNPVKDILNIATDKPVHSIRIYNVYGSEVLRAADTNRIDVSHLPAGVYMVSADGKVTRIIK | 0.0765 |
| HMPSLGGLLALLKRNRKPDAMEALDRLISKEDRPETAEALENIREKVRNMQMREAEGLLLALMEP | -0.281 |
| HMPSLILADEPTGNLDSRNSSEVIALLKNASKRYAQTIIMITHNRSIAQSADRVLQVSDGVLTDMG | 0.0603 |
| HMPSLNDRPDDVLYLFSYFLQSFSHRQVSLPKILKKALIQHDWWGNIRELHSVALRYYIFGDTLNGAYDSL | -0.895 |
| HMPSLSREREAAILEMIERRPSTAEDVASGLGLAVNEVIKLLDGTALRGSVETFQSGEEIYYTRKR | -0.294 |
| HMPSNVKIPDVTGKTVAQARSAIEAAGLKVGKEKDEYSDSAKKDSVIRTNPQAGTQRREGSTVDLIVS | 0.22 |
| HMPSPFYIMDEVEAALDDTNLGRLITLFEELRDSSQLIVITHQKKTMEIADALYGVTMRGDGITTVVSQRL | -2.24 |
| HMPSQEQSDKNAAMAFLPVIVKNALNGKGLKISDDWKAAVNTALAQYPLVNKFFNADSPEVTELVMGL | 0.0187 |
| HMPSQLPLAFARRHGVLLRGFSNGLAQLTVRPEVSTLSLAETRRHLGVPLALEKVTTERFDQLLREAYEA | -0.152 |
| HMPSYYKELQNYSPENPVVKKRKVHPDVVNAIKYLAEITDGNPMLIKAYAQMILAHVFTTMPLIDKSV | 0.22 |
| HMPTEAIVLQQIQIRQSPSGNSKSLQQILPGAKIKITSESSVKGWKQVSLDGGQKGWIPTAAIGL | 0.302 |
| HMPTELVYTVPASAEGLRLDHFLVQHVPHMTRALATELTGAGGVRVNGRRAKKGDRLPSGAEVRLER | 0.286 |
| HMPTFAEKLHEVRKARDFTQDQLAKEMNVSRQTISHWENGRAVPDIDTIKHLSQVLDYNFLV | -0.171 |
| HMPTITIQRGIILSSTTKGFIDELSHSQIKNAIVERLGEHHVMIHESQLDAVIKYAQKKEAVINIYL | -0.0875 |
| HMPTMEQTYIGRTMIAEEDMGKNSKIKVSGIYWTAYNKGRVIKKGEEYKITGIEGNKLIVSSK | 0.179 |
| HMPTNSDRLIGSDGVVSSKIDNLQGTGKVYISGLTWSARTIDGSEAEEGDIVTVEKIEGATLYVTKR | -0.293 |
| HMPTNVYSIIGKEGIVLESIDNLNSTGKVKVNGELWSAISDSNIEKGETIKVLSVNGVKLKVEKVN | -0.0569 |
| HMPTPASGSSGYINATNVNFRTGPATSYKSISKLAKNTAVTILGTSGNWYKVTVGSLGKNGYVFATYVTVS | -0.332 |
| HMPTPLTPREHEIANLIAQGLSNREIADELVISPATAARHVANILAKLGFSSRTQVASWATRHD | -0.237 |
| HMPTSLPGIDIDEKNIVSSTGALSFKKVPKKLAIIGGGYIGLEMGSVWSRLGSSVTVIEYLNFITPG | -0.172 |
| HMPTTLEGIEKYLSSGLIKGIGPHLAGKLVEAFGTRVFEVVEHQPERLRTVGGIGRTRAESITSAWRDQ | -0.141 |
| HMPTTNIRAFRLREADPESVKEALSMVMPKTSIYVDARTKSVLVVGLLDELARAAEIVALIDQP | -1.13 |
| HMPVFSAEQVAKAEADVQKVANKVQEAGADVEKLTTIHNWLLAREKYMPPDLFSTANQIIATAFQKAG | 0.279 |
| HMPVGSIGERLKALRLKAGLTQEEVGQHVHISKQTLYKYENGIVTNIPADKIELLATIYSVTPAYIMGWA | -0.118 |

| Sequence | soluble fraction (log2) |
| --- | --- |
| HMPVQPMDPSIEHISALTGKQFQAFPGQDHRAHMTAHLNFMSTNIVRNNPAVMGAIQKNILEHISLMAQEQ | -0.0918 |
| HMPVSLHEQIQQARIRAEQNVEGISLLLQVNPKYYEQIEAGDVIPDQDLLKRISSLFGWNYHEMLHREKSS | -0.487 |
| HMPVSTLLGDNLRRLRTAKGYTQEAVADAARISVAAYRNYETGRAIPKVNTLLAIARALGVSLNDLVTE | -0.00358 |
| HMPVTAQFDFSKVLAGRTLKDGEFSFVLKDKNGTVLQTKTNDASGKVAFDALIYKNNEVGEHKYTVEEVI | 0.294 |
| HMPVVKIPFILTEGPSSITKVIEIDADEILELKDVFQEDDKLWSINQIEMNDGRYVKHSDASLIVRASALR | -0.183 |
| HMPYHSEAWHKVMKSHWLTLSREEAYMHEGRTGASTINIVFQRELGREATQEEIESIYQEKSVLFNSYP | -1.37 |
| HMPYLVNGFILEVQSDDNNPVGTLKRRYAVAKNKQGVILLEGEKSFSSNDQILINELKFYIQSNDLKA | -1.39 |
| HMPYSKIALQISHLLKSHGVPLSNKQIYEKLINDFQLSINYSNLTNNILPRMNSDSSINVEKVTRGYWQY | 0.22 |
| HMQADKYKSYTATDFLKDKDFLRWQLFNGEEDMLFWGRVIEEYPALRSRVEEGIVLYKDNIR | -1.18 |
| HMQADTATITGNGVNMRSGPGTNYQIIDTIPKGTVAEVLSQQDGWVKIYSARISGWVSASYVEIKQT | 0.18 |
| HMQAGNAVEQYPTIGRLEEVTLGRSQPGAPIGERLSTLETVVFKRNFNDDSLFDRTERLKKTILGG | -0.0794 |
| HMQAKQVAIPDVANYSVTDAIKKLQDAGFIVSDEQREEANETVSEGKVSRTSPAAGSIRKEGTEIILYKSL | 0.279 |
| HMQALDETTVSRIRQKAAARNLLLKVLAGQLGVARPTLSNVLARREAPSAALAARIRAFLDSP | 0.159 |
| HMQALTLVGQDAKDAKAALDAVDIQPAKTETDRYIYVLTEQQAQELGRTVDALYGVEGSLTLILEV | -0.207 |
| HMQAQQYYMLLMNKATSALKIEALGANSNKAHQSFGTKTAGGSAVYWGILFNSNGKIYKIVG | -0.15 |
| HMQASIPQSQKDALAKELQALPPHGRNRVLSTFRQQFNISSEKISEFITTPEHLSFIRSKIAEVESDS | -0.529 |
| HMQDENAVTYLLEIKNADANDIASVLKTLKSPDADVVVYKTLNMIIFTGQGSEINGLVKVARQLDRK | -1.3 |
| HMQDGVNLENIEQKLSTLGVGKAQYFLQNVGGNKFNAYMALNTDGVEGYQKGSDTLIEIKNVE | 0.0934 |
| HMQDKIWVVDETQLYPKLIEAMSEGKAVIHDGVAYWAEGSGKTGVIQHLPFKETTVQNVEEAIKLAQ | -0.543 |
| HMQDKLLRKKEVLEMVSITNSTMYRMIGSGQFPRPIRLDNANINSGVRWKLSEINTFIEQRF | -0.893 |
| HMQDLAKRWVEEFGDLLYKYTLPRVSDSGIAKDLVQETFLAAWRNIDNFKGEASEKNWLFTILKNKIIDH | -0.585 |
| HMQDLTAQQQAILSFLKEHPKATRKEISENIPNITEDNIRYNLSQLQELGFVKSMGDSFIRIAI | 0.216 |
| HMQDNDLKNQIENVLRTYPDNVFTVEKIADVLRSHGSAAFKLIVQELASLERDKVAVVTEDGKFQLNPD | 0.339 |
| HMQDPTAVISRVLEERKHQPGALLPILHGIQDALGYVPREAVAQIAQALNLSRAEIHGVVSFYHHFR | -0.311 |
| HMQDPVWVDWLGENDWFQKDPKRRGLANGYSEILRAEQPELVGRPFLDEVTRRVQADFPELFG | -1.33 |

Source: the domain aggregation screens of Martell et al. (2025)
